Positions count from the first letter of the chain named. In names and notes the source's numbering stands. Several values for one entry are separate records, joined by “and”; a condition that tells them apart may be missing. Identical values can stand only once.
B1: hu37D3-H9.v5 (antibody, V domains shown)
VH: EVQLVESGGGLVQPGGSLRLSCAASGLIFRSYGMSWVRQAPGKGLEWVATINSGGTYTYYPDSVKGRFTISRDNSKNTLYLQMNSLRAEDTAVYYCANSYSGAMDYWGQGTLVTVSS
VL: EDVLTQTPLSLPVTPGQPASISCRSSQSIVHSNGNTYFEWYLQKPGQSPQLLIYKVSNRFSGVPDRFSGSGSGTDFTLKISRVEAEDVGVYYCFQGSLVPWTFGQGTKVEIK
notes: human IgG1 or IgG4, kappa
B2: hu37D3-H9.v1 (antibody, V domains shown)
VH: B1 VH
VL: EDQLTQSPSSLSASVGDRVTITCRSSQSIVHSNGNTYFEWYQQKPGKSPKLLIYKVSNRFSGVPSRFSGSGSGTDFTLTISSLQPEDFATYYCFQGSLVPWTFGQGTKVEIK
notes: human IgG1 or IgG4, kappa
B3: hu37D3-H9.v28.A4 hIgG4.S228P.YTE (antibody, V domains shown)
VH: B1 VH
VL: DDVLTQTPLSLPVTPGQPASISCRSSQSIVHSNGNTYLEWYLQKPGQSPQLLIYKVSNRFSGVPDRFSGSGSGTDFTLKISRVEAEDVGVYYCFQGSLVPWTFGQGTKVEIKR
notes: also called hu37D3.v28.A4 hIgG4-S228P.YTE
B4: hu37D3-H9.v5 N28D hIgG1 (antibody, name in Kabat numbering, V domains shown)
VH: B1 VH
VL: B1 VL with N33D
notes: human IgG1, kappa; also called hu37D3-H9.v5.3
B5: 15C6-A7 (antibody, V domains shown)
VH: EVQLQQSGPELVKPGASVMMTCKASGYTFTDYYMKWVKQSNGKSLEWIGDLDPYTGGANYNQKFKGKATLTVDKSSSTAYMHLNSLTSEDSAVYYCARSRGYGDSFAYWGQGTLVTVSA
VL: DVLMTQTPLSLPVSLGDQASISCRSSQNIVHSNGNTYLEWYLQKPGQSPKLLIYKVSNRFSGVPDKFSGSGSGTDFTLKISRVEAEDLGVYFCFQGSHVPPTFGGGTKLEIK
notes: hybridoma supernatant
B6: 14F5-D9 (antibody, V domains shown)
VH: EVKLVESGGGLVQPGGSLRLSCATSGFTFSDFYMEWVRQSPGKRLEWIAASKNKANDYTTEYNASVKDRFFVSRDTSQSILYLQMNALRAEDTAIYYCARDALGTVFAYWGQGTLVTVSA
VL: DVVMTQTPLSLPVSLGDQASISCRSSQSLVHSNGNTYLHWYLQKPGQSPKLLIYKVFNRFSGVPDRFSGSGSGTDFTLKISRVEAEDLGVYFCSQSTLVPLTFGAGTKLELK
notes: hybridoma supernatant

Assays:
[1] = biological target: T1, recombinant human Tau monomer, 2N4R isoform (amino acids 2-441) (human, UniProt P10636-8 2-441); experiment: SPR; Normalized Rmax post-stress (2 weeks 40 C) / pre-stress
T1 construct: range 2-441; N-terminal His-tag removed with TEV protease; also called monomeric Tau
Procedure, shortened: (§1)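 First, IgGs from 1 mL culture were protein A purified and set to 0.1 mg/ml. Next, aliquots were stored at ~4° C. or stressed at 40° C. for two weeks. Then each prep was captured and probed with Tau monomer by multi-cycle SPR at 25° C., fitting a 1:1 binding model.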

[2] = biological target: T1, recombinant human Tau monomer, 2N4R …; experiment: SPR, captured IgG, Tau monomer analyte, 1:1 model; fit-quality column: Yes
Procedure, shortened: as §1

[3] = biological target: T1, recombinant human Tau monomer, 2N4R …; experiment: SPR screen, hIgG captured, Tau monomer analyte
Protocol: (§2) Grafting onto consensus VH3, Vκ2 and Vκ1 frameworks was assessed. The heavy chain graft included murine residue at position 49 (Kabat numbering system). The Vκ2 graft included murine residues in framework positions 2 and 4. The Vκ1 graft included murine residues in framework positions 2, 4 and 43. Humanized variants were constructed by gene synthesis and subcloning into human IgG1 or IgG4 and Kappa chain mammalian expression vectors. Antibodies were expressed by co-transfection of the heavy and light chain plasmids into CHO cells and purified with affinity resin MabSelect Sure. Humanized variants were screened for affinity to human Tau monomer using the Biacore human IgG capture kit, a Series S CM5 chip and a Biacore T200 instrument. Antibodies were diluted to 2 μg/ml and captured for 15 seconds at 10 μl/min. Association and dissociation of 100, 33, 11 and 3.7 nM human Tau monomer in 10 mM HEPES pH7.4, 150 mM NaCl, 0.05% Tween 20 (running buffer, HBSP) was monitored for 180 seconds and 600 seconds respectively at a flow rate of 30 μl/min. A 1:1 binding model was applied to the results (Table 7).

[4] = biological target: T1, recombinant human Tau monomer, 2N4R …; experiment: SPR detailed kinetics, hIgG captured, Tau monomer analyte
Protocol: as §2, with “Antibodies were diluted to 2 μg/ml and captured for 15 seconds at 10 μl/min.” left out, “A 1:1 binding model was applied to the results (Table 7).” left out
Antibody variants hu37D3-H9.v1, hu37D3-H9.v2, hu37D3-H9.v5 and hu37D3-H9.v6 were characterized further by surface plasmon resonance with additional antibody concentrations and longer association/dissociation times. These variants were analyzed with a broader range of human Tau monomer concentrations (1.2, 3.7, 11.1, 11.1, 33.3, 100 nM) and increased association (300 seconds) and dissociation (1200 seconds) periods. […]

[5] = biological target: T1, recombinant human Tau monomer, 2N4R …; experiment: SPR, human Fab capture kit, Tau monomer analyte
Protocol: Affinity was assessed at 25° C. using a Biacore T200 instrument, the GE Biacore human FAb capture kit and a CM5 Series S chip. The hIgG were diluted to 0.5 μg/ml in 10 mM HEPES pH7.4, 150 mM NaCl, 0.05% Tween 20 (running buffer, HBSP) and captured at a flow rate of 10 μl/min for 180 seconds. Kinetic data was collected for Human Tau monomer injected at concentrations of 0, 0.4, 1.2, 3.7, 11, 11, 33 and 100 nM in HBSP, using a flow rate of 30 μl/min, a 300 second association phase and a 600 second dissociation phase. Between cycles the surface was regenerated using two sequential 60 second injections of 10 mM Glycine pH 2.1. Data was fit to a 1:1 binding model.

[6] = biological target: T1, recombinant human Tau monomer, 2N4R …; experiment: SPR, hIgG captured, Tau monomer analyte
Protocol: Affinity was assessed at 25° C. using a Biacore T200 instrument, the GE Biacore human IgG capture kit and a CM5 Series S chip. The hIgG were diluted to 2 μg/ml in 10 mM HEPES pH7.4, 150 mM NaCl, 0.05% Tween 20 (running buffer, HBSP) and captured at a flow rate of 10 μl/min for 22 seconds. […] Between cycles the surface was regenerated using a 30 second injection of 3M Magnesium Chloride at 10 μl/min. A 1:1 binding model was fitted to the data and affinities for hu37D3-H9.v5 and hu37D3-H9.v5.3 (also referred to herein as hu37D3-H9.v5 N28D) calculated using kinetic analysis. Parameters used for the 1:1 fitting included the Instrument default of local fitting for the “RI” parameter.

[7] = biological target: T2, full-length human Tau (flTau) (human, UniProt P10636-8 1-441); experiment: indirect ELISA, flTau coated, hybridoma supernatant diluted, O.D.
T2 construct: range 1-441; bought (SignalChem); also called human Tau-441
Protocol: Coating was done overnight in phosphate-buffered saline (PBS) at 4° C. Plates were washed thoroughly with 0.05% Tween-20/PBS and then blocked with 1% bovine serum albumin (BSA) in 0.05% Tween-20/PBS for 1 hr at 37° C. The antibody contained in the hybridoma supernatant was then added at the indicated dilutions, and incubated for 2 hrs at 37° C. after which the plates were washed as described previously.
For the indirect ELISAs, an AP-conjugated anti-mouse IgG secondary antibody (Jackson ImmunoResearch Laboratories, United Kingdom) was added at 1/6000 dilution in 0.05% Tween-20/PBS for 2 hr at 37° C. After the final wash, plates were incubated with p-nitrophenyl phosphate disodium hexahydrate (pNPP; Sigma-Aldrich, Switzerland) phosphatase substrate solution, and read at 405 nm using an ELISA plate reader (Tecan, Switzerland). Results are expressed as optical densities (O.D.).

[8] = biological target: T3, AVI-tag biotinylated monomeric flTau (human, UniProt P10636-8 1-441, site-specific biotin on AVI-tag); experiment: capture ELISA, antibody on anti-IgG plate, biotinylated monoTau titrated, O.D.
T3 construct: also called monoTau; monomeric Tau
Protocol: (§3) For the oligoTau and monoTau capture ELISAs, antibodies contained in serum-free sterile hybridoma supernatants were immobilized on an anti-IgG coated plate at 500-fold dilution, followed by the incubation of oligoTau or monoTau, both with site-specific biotinylation via an AVI-tag. The target incubations started at 5 μg/mL and then were diluted 8- or 16-fold. Streptavidin-HRP and ABTS substrate was used for signal quantitation in a plate reader (Tecan, Switzerland). Results are expressed as O.D.

[9] = biological target: T4, AVI-tag biotinylated oligomeric flTau (human, UniProt P10636-8 1-441, site-specific biotin on AVI-tag); experiment: capture ELISA, antibody on anti-IgG plate, biotinylated oligoTau titrated, O.D.
T4 construct: also called oligoTau; oligomeric Tau
Protocol: as §3

T1 sequence (P10636 other isoform, or with tags, fused parts or gaps limits assumed): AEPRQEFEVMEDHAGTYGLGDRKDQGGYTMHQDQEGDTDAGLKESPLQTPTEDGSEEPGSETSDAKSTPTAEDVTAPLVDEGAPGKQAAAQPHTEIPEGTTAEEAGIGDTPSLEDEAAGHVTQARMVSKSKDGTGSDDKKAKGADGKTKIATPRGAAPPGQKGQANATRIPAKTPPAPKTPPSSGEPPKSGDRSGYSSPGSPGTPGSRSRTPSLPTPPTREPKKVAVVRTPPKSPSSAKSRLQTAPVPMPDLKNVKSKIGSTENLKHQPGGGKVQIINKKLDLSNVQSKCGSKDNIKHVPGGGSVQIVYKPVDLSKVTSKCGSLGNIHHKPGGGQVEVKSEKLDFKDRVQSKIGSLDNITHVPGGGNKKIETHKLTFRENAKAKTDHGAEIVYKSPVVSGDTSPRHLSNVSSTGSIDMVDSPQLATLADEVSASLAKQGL
T3 sequence (P10636 other isoform, or with tags, fused parts or gaps limits assumed): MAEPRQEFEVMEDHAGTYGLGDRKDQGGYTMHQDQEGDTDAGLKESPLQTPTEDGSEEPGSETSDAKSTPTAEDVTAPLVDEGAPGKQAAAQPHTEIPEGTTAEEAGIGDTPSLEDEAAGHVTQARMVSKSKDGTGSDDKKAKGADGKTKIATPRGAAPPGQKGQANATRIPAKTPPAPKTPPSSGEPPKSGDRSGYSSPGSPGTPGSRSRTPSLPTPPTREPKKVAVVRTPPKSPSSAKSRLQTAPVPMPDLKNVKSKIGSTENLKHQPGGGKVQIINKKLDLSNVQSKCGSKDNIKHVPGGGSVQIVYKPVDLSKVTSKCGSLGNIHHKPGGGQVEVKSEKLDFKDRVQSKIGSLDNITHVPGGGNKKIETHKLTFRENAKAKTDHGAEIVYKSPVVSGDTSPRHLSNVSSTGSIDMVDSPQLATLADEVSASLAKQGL

| Binder | Stability Index [1] [%] | Kd [2] [nM] | Kd [3] [nM] | Kd [4] | binding result [7] | binding result [8] | binding result [9] | also measured |
| --- | --- | --- | --- | --- | --- | --- | --- | --- |
| B1 | 73 | 0.9 | 1.9 | 0.8 nM |  |  |  |  |
| B2 |  |  | 4.1 | 1.1 nM and 1 nM |  |  |  |  |
| B3 |  |  |  |  |  |  |  | Kd [5]: 1.4 nM; koff [5]: 0.0009 s⁻¹; kon [5]: 600000 M⁻¹ s⁻¹ |
| B4 | 70 | 73.2 |  |  |  |  |  | Kd [6]: 160 nM; fold reduction in affinity against hu37D3-H9.v5 [6]: > 100 fold |
| B5 |  |  |  |  | binds | binds | binds |  |
| B6 |  |  |  |  | binds | binds | binds |  |
